The numbers were not newly measured in PMC10643566, “Insights into the mechanism of SARS-CoV-2 main protease autocatalytic maturation from model precursors” (Communications Biology, 2023), which cites them from elsewhere.

For this series, the target named is MPro (SARS-CoV-2) (UniProt P0DTD1). Conditions: cited from earlier work.

In general, Kd refers to the equilibrium constant for the complex coming apart. In the case of MPro (from UniProt P0DTD1), the Kd is 1300 nM.
